No end group written: not given here. *: point of attachment. 125I = [125I]*
T1: TGR26, rat-derived G protein-coupled receptor protein (rat, UniProt Q56UD9 1-329)
T1 construct: Expressed in CHO dhfr- cells from pAK-rGPR7; also called rat TGR26; TGR26 receptor
T1 sequence: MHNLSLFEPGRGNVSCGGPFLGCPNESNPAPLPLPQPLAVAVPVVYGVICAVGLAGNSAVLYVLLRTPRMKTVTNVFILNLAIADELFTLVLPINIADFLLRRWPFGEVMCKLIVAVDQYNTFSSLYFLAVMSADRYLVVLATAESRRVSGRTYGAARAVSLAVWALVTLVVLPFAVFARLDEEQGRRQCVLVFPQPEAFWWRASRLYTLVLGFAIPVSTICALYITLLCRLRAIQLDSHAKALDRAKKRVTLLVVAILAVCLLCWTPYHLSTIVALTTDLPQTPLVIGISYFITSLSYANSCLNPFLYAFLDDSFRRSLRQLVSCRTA

T2: Human GPR7 (human, UniProt P48145 1-328)
T2 sequence: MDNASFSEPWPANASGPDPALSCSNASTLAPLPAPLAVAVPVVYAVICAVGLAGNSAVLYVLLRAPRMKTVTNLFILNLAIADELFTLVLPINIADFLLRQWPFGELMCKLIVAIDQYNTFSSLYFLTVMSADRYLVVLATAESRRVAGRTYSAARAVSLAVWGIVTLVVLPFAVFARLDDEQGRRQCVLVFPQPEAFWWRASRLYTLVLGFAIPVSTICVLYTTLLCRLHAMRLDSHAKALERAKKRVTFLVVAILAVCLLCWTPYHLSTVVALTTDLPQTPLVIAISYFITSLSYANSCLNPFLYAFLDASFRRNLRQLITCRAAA

B1: human homologue of GPR8 ligand peptide consisting of 23 residues (peptide)
peptide: WYKHVASPRYHTVGRAAGLLMGL
notes: also called hGPR8L(1-23); Human GPR8 ligand (1-23)
B2: [Phe^2, ^125I-Tyr^10]-Human GPR8 ligand (1-20) (peptide)
peptide: WFKHVASPRY(125I)HTVGRAAGLL
notes: Radioligand made from [Phe2]; also called labeled [Phe^2]; Human GPR8 ligand (1-20)

What was measured:
[1] = target: T1, TGR26, rat-derived G protein-coupled …; experiment: competition with [125I-Tyr10]-hGPR8L(1-23), membrane fraction of TGR26 expressing CHO cells, 3 µg/ml
Method: Cell membrane fraction prepared from TGR26 expressing cells was diluted to various concentration with assay buffer (25 mM Tris-HCl, 5 mM EDTA, 0.05% CHAPS (3-[(3-Cholamidopropyl) Dimethyl-Ammonio]-1-Propanesulfonate), 0.1% BSA, 0.5 mM PMSF, 1 μg/ml Pepstatin, 20 μg/ml Leupeptin, 4 μg/ml E-64, pH7.4), and 200 μl each of the diluent was dispensed into polypropilene test tube (Falcon 2053). In order to determine an amount of maximum binding, 2 μl of DMSO and 2 μl of 7 nM [¹²⁵-Tyr¹⁰]-hGPR8L(1-23) were added to the membrane fraction solution. Further, in order to determine a non-specific binding, 2 μl of 100 μM hGPR8L(1-23)/DMSO solution and 2 μl of 7 nM [¹²⁵I]-Tyr¹⁰]-hGPR8L(1-23) were added to the membrane fraction solution. The reaction was done at 25° C. for 75 minutes, and the reaction mixture was filtered by suction filtration using Whatman glassfilter (GF-F) treated with polyethyleneimine. In addition, the filter was washed twice with 1.5 ml of washing buffer (25 mM Tris-HCl, 5 mM EDTA, 0.05% CHAPS, 0.1% BSA, pH7.4). After filtration, a radioactivity remaining on the filter was counted using γ-counter, and an amount of specific binding was estimated by subtracting an amount of non-specific binding from an amount of maximum binding. […]

[2] = target: T2, Human GPR7; experiment: cell-based or functional assay
[3] = target: T2, Human GPR7; experiment: cell-based or functional assay; remark: listed apart in the source
[4] = target: T2, Human GPR7; experiment: competition with [Phe2, 125I-Tyr10]-Human GPR8 ligand (1-20), membrane fraction of GPR7 expressing CHO cells, 15 µg/ml
Method: In order to determine an amount of maximum binding, 2 μl of DMSO and 2 μl of 7 nM [Phe², ¹²⁵I-Tyr¹⁰]-Human GPR8 ligand (1-20) were added to the membrane fraction solution. Further, in order to determine a non-specific binding, 2 μl of 100 μM hGPR8L(1-23)/DMSO solution and 2 μl of 7 nM [Phe², ¹²⁵I-Tyr¹⁰]-Human GPR8 ligand (1-20) were added to the membrane fraction solution. The reaction was done at 25° C. for 75 minutes, and the reaction mixture was filtered by suction filtration using Whatman glassfilter (GF-F) treated with polyethyleneimine. After filtration, a radioactivity remaining on the filter was counted using γ-counter, and an amount of specific binding was estimated by subtracting an amount of non-specific binding from an amount of maximum binding. When the concentration of membrane fraction was changed, a specific binding of [Phe², ¹²⁵I-Tyr¹⁰]-Human GPR8 ligand (1-20) was perceived depending on the concentration of membrane fraction.
The inhibition of binding for GPR7 receptor or GPR8 receptor in the test sample (the inhibition rate (%)) is represented by the ratio of the values obtained by subtracting a radioactivity (X) remaining on the filter in the case where the test sample and of [Phe², ¹²⁵I-Tyr¹⁰]-Human GPR8 ligand (1-20) were added from the maximum binding (TB) to the specific binding (SB) ((TB−X)/SB×100(%)).
(§1) The IC₅₀ values were 0.13 nM and 0.039 nM, respectively. […]

[5] = target: T3, Human GPR8 receptor protein (human, UniProt P48146 1-333); experiment: competition with [125I-Tyr10]-hGPR8L(1-23), membrane fraction of GPR8 expressing CHO cells
T3 construct: Full-length receptor expressed in CHO dhfr- cells (CHO/GPR8)
T3 sequence (P48146 whole entry): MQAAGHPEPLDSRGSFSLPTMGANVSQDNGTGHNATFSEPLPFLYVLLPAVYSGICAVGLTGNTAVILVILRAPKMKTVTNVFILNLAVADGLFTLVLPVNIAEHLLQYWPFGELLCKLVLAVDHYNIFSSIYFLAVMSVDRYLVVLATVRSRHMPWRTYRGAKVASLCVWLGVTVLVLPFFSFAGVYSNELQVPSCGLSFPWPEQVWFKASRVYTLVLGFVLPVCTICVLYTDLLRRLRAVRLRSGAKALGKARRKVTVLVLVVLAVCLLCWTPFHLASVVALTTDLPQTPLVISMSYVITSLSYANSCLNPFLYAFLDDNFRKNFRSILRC
Method: Cell membrane fraction prepared from Human GPR8 expressing cells was diluted to various concentration with assay buffer (25 mM Tris-HCl, 5 mM EDTA, 0.05% CHAPS (3-[(3-Cholamidopropyl) Dimethyl-Ammonio]-1-Propanesulfonate), 0.1% BSA, 0.25 mM PMSF, 1 μg/ml Pepstatin, 20 μg/ml Leupeptin, pH7.4), and 200 μl each of the diluent was dispensed into polypropilene test tube (Falcon 2053). In order to determine an amount of maximum binding (TB), […] of DMSO and 2 μl of 7 nM [¹²⁵I-Tyr²]-hGPR8L(1-23) or [¹²⁵I-Tyr¹⁰]-hGPR8L(1-23) were added to the membrane fraction solution. Further, in order to determine a non-specific binding (NSB), 2 μt of 100 μM hGPR8L(1-23)/DMSO solution and 2 μl of 7 nM [¹²⁵I]-Tyr²]-hGPR8L(1-23) or [¹²⁵I-Tyr¹⁰]-hGPR8L(1-23) were added to the membrane fraction solution. The reaction was done at 25° C. for 60 minutes, and the reaction mixture was filtered by suction filtration using Whatman glassfilter (GF-F) treated with polyethyleneimine. After filtration, a radioactivity remaining on the filter was counted using γ-counter, and an amount of specific binding (SB) was estimated by subtracting an amount of non-specific binding from an amount of maximum binding. Since the specific binding in the case where [¹²⁵I-Tyr¹⁰]-hGPR8L(1-23) was used, was twice as much as that in the case where [¹²⁵1-Tyr²]-hGPR8L(1-23) was used, in practice, [¹²⁵I-Tyr¹⁰]-hGPR8L(1-23) was used in the assay. When the concentration of membrane fraction was changed, a specific binding of [¹²⁵I-Tyr¹⁰]-hGPR8L(1-23) was perceived depending on the concentration of membrane fraction.
A receptor binding activity of human- and porcine-homologue derivatives of GPR8 ligand peptide, wherein the synthesis method has been described in the specification, was measured using a membrane fraction of GPR8 expressing CHO cells and [¹²⁵-Tyr¹⁰]-hGPR8L(1-23) by the method described in Reference Example 43.

[6] = target: T3, Human GPR8 receptor protein; experiment: radioligand filter binding, membrane fraction of GPR8 expressing CHO cells
Method: (§2) Cell membrane fractions prepared from GPR7 expressing CHO cells and GPR8 expressing CHO cells, were diluted to various concentration with assay buffer (25 mM Tris-HCl, 5 mM EDTA, 0.05% CHAPS, 0.1% BSA, 0.5 mM PMSF, 1 μg/ml Pepstatin, 4 μg/ml E-64, 20 μg/ml Leupeptin, pH7.4), and 200 μl each of the diluent was dispensed into polypropilene test tube (Falcon 2053). In order to determine an amount of maximum binding, 2 μl of DMSO and 2 μl of 7 nM [Phe², ¹²⁵I-Tyr¹⁰]-Human GPR8 ligand (1-20) were added to the membrane fraction solution. Further, in order to determine a non-specific binding, 2 μl of 100 μM hGPR8L(1-23)/DMSO solution and 2 μl of 7 nM [Phe², ¹²⁵I-Tyr¹⁰]-Human GPR8 ligand (1-20) were added to the membrane fraction solution. The reaction was done at 25° C. for 75 minutes, and the reaction mixture was filtered by suction filtration using Whatman glassfilter (GF-F) treated with polyethyleneimine. After filtration, a radioactivity remaining on the filter was counted using γ-counter, and an amount of specific binding was estimated by subtracting an amount of non-specific binding from an amount of maximum binding. When the concentration of membrane fraction was changed, a specific binding of [Phe², ¹²⁵I-Tyr¹⁰]-Human GPR8 ligand (1-20) was perceived depending on the concentration of membrane fraction.
as §1

[7] = target: T2, Human GPR7; experiment: radioligand filter binding, membrane fraction of GPR7 expressing CHO cells
Method: as §2, §1

| Binder | IC50 [1] | inhibition of intracellular cAMP production (IC50) [2] | Promoting activity to GTPγS binding (EC50 nM) [3] | IC50 [4] | IC50 [5] | binding result [6] | binding result [7] |
| --- | --- | --- | --- | --- | --- | --- | --- |
| B1 | 0.12 nM | 0.025 nM | 0.74 nM | 0.13 nM | 0.25 nM |  |  |
| B2 |  |  |  |  |  | binds | binds |

Source: patent US20050124539A1 (Takeda / Millennium, published 2005)
